{
  "source": "paper PMC9482650",
  "about": "“Quantitative fragmentomics allow affinity mapping of interactomes” (Nature Communications, 2022)",
  "binders": {"B1": {"name": "GPRC6A, Q5T6X5 (peptide)", "chain": "TLPRKRMSSI"}, "B2": {"name": "EFNB1, P52799 (peptide)", "chain": "QSPANIYYKV"}},
  "data": [
    {"target": "T1, APBA1_1, Q02410", "T1 sequence (Q02410 651-752, limits assumed, looked up)": "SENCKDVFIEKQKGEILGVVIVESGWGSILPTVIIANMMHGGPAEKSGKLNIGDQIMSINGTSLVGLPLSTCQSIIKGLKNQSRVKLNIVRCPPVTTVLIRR", "experiment": "holdup assay", "parameters": "key: below the threshold = too weak to quantify, mostly under pKd 3.1 to 4", "conditions": "plain residues with an end cap or a label only (N-terminal biotin on a linker: ado-ado)", "values": [
      {"binder": "B1", "pKd": "below the threshold"},
      {"binder": "B2", "pKd": "below the threshold"}
    ]},
    {"target": "T2, ARHGEF11, O15085", "T2 sequence (O15085 42-136, limits assumed, looked up)": "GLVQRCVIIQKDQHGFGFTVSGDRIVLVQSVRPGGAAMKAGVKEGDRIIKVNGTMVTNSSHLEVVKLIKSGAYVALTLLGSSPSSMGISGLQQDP", "experiment": "holdup assay", "parameters": "key: below the threshold = too weak to quantify, mostly under pKd 3.1 to 4", "conditions": "plain residues with an end cap or a label only (N-terminal biotin on a linker: ado-ado)", "values": [
      {"binder": "B1", "pKd": "below the threshold"},
      {"binder": "B2", "pKd": "below the threshold"}
    ]},
    {"target": "T3, DLG3_2, Q92796", "T3 sequence (Q92796 221-321, limits assumed, looked up)": "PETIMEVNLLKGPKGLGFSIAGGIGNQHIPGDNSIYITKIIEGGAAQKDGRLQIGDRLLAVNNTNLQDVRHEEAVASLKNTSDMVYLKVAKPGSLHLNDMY", "experiment": "holdup assay", "parameters": "key: below the threshold = too weak to quantify, mostly under pKd 3.1 to 4", "conditions": "plain residues with an end cap or a label only (N-terminal biotin on a linker: ado-ado)", "values": [
      {"binder": "B1", "pKd": 4.23},
      {"binder": "B2", "pKd": "below the threshold"}
    ]},
    {"target": "DLG4_2, P78352", "sequence (P78352 155-259)": "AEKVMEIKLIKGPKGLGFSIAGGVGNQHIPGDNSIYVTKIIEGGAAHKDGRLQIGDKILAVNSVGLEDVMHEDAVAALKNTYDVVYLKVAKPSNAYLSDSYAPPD", "experiment": "holdup assay", "parameters": "key: below the threshold = too weak to quantify, mostly under pKd 3.1 to 4", "conditions": "plain residues with an end cap or a label only (N-terminal biotin on a linker: ado-ado)", "values": [
      {"binder": "B1", "pKd": "below the threshold"},
      {"binder": "B2", "pKd": "below the threshold"}
    ]},
    {"target": "T4, FRMPD1, Q5SYB0", "T4 sequence (Q5SYB0 52-145, limits assumed, looked up)": "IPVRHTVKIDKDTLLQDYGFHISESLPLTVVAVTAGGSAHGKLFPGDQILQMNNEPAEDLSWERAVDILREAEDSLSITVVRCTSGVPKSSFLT", "experiment": "holdup assay", "parameters": "key: below the threshold = too weak to quantify, mostly under pKd 3.1 to 4", "conditions": "plain residues with an end cap or a label only (N-terminal biotin on a linker: ado-ado)", "values": [
      {"binder": "B1", "pKd": "below the threshold"},
      {"binder": "B2", "pKd": "below the threshold"}
    ]},
    {"target": "FRMPD2_1, Q68DX3", "sequence (Q68DX3 770-861)": "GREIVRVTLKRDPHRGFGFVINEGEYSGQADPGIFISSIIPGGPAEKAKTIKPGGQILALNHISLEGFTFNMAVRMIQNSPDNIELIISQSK", "experiment": "holdup assay", "parameters": "key: below the threshold = too weak to quantify, mostly under pKd 3.1 to 4", "conditions": "plain residues with an end cap or a label only (N-terminal biotin on a linker: ado-ado)", "values": [
      {"binder": "B1", "pKd": "below the threshold"},
      {"binder": "B2", "pKd": "below the threshold"}
    ]},
    {"target": "FRMPD2_3, Q68DX3", "sequence (Q68DX3 1073-1166)": "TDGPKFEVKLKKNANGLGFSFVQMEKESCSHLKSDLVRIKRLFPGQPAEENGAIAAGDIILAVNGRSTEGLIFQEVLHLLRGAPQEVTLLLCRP", "experiment": "holdup assay", "parameters": "key: below the threshold = too weak to quantify, mostly under pKd 3.1 to 4", "conditions": "plain residues with an end cap or a label only (N-terminal biotin on a linker: ado-ado)", "values": [
      {"binder": "B1", "pKd": "below the threshold"},
      {"binder": "B2", "pKd": "below the threshold"}
    ]},
    {"target": "GIPC2, Q8TF65", "sequence (Q8TF65 112-203)": "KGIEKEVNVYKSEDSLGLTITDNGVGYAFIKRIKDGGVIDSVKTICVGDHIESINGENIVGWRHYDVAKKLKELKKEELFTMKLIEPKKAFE", "experiment": "holdup assay", "parameters": "key: below the threshold = too weak to quantify, mostly under pKd 3.1 to 4", "conditions": "plain residues with an end cap or a label only (N-terminal biotin on a linker: ado-ado)", "values": [
      {"binder": "B1", "pKd": "below the threshold"},
      {"binder": "B2", "pKd": "below the threshold"}
    ]},
    {"target": "GOPC, Q9HD26", "experiment": "holdup assay", "parameters": "key: below the threshold = too weak to quantify, mostly under pKd 3.1 to 4", "conditions": "plain residues with an end cap or a label only (N-terminal biotin on a linker: ado-ado)", "values": [
      {"binder": "B1", "pKd": "below the threshold"},
      {"binder": "B2", "pKd": "below the threshold"}
    ]},
    {"target": "GORASP1, Q9BQQ3", "sequence (Q9BQQ3 1-208)": "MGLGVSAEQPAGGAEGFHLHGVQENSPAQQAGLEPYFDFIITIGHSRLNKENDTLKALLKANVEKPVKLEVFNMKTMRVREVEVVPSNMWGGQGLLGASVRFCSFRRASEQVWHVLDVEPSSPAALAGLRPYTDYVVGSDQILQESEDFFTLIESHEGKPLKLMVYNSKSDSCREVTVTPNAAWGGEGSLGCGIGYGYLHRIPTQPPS", "experiment": "holdup assay", "parameters": "key: below the threshold = too weak to quantify, mostly under pKd 3.1 to 4", "conditions": "plain residues with an end cap or a label only (N-terminal biotin on a linker: ado-ado)", "values": [
      {"binder": "B1", "pKd": "below the threshold"},
      {"binder": "B2", "pKd": 4.85}
    ]},
    {"target": "T5, HTRA3, P83110", "T5 sequence (P83110 354-453, limits assumed, looked up)": "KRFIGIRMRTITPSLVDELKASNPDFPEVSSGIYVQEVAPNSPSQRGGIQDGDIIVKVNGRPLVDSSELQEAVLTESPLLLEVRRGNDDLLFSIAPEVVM", "experiment": "holdup assay", "parameters": "key: below the threshold = too weak to quantify, mostly under pKd 3.1 to 4", "conditions": "plain residues with an end cap or a label only (N-terminal biotin on a linker: ado-ado)", "values": [
      {"binder": "B1", "pKd": "below the threshold"},
      {"binder": "B2", "pKd": "below the threshold"}
    ]},
    {"target": "Inadl_1, Q8NI35", "sequence (Q8NI35 113-229)": "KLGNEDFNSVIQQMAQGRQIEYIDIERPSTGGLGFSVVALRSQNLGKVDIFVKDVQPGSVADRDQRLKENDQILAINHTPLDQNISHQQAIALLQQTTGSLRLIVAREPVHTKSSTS", "experiment": "holdup assay", "parameters": "key: below the threshold = too weak to quantify, mostly under pKd 3.1 to 4", "conditions": "plain residues with an end cap or a label only (N-terminal biotin on a linker: ado-ado)", "values": [
      {"binder": "B1", "pKd": "below the threshold"},
      {"binder": "B2", "pKd": 3.82}
    ]},
    {"target": "Inadl_10, Q8NI35", "sequence (Q8NI35 1673-1763)": "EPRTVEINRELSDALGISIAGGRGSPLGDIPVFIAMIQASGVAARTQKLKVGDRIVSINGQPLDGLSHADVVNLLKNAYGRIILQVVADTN", "experiment": "holdup assay", "parameters": "key: below the threshold = too weak to quantify, mostly under pKd 3.1 to 4", "conditions": "plain residues with an end cap or a label only (N-terminal biotin on a linker: ado-ado)", "values": [
      {"binder": "B1", "pKd": "below the threshold"},
      {"binder": "B2", "pKd": "below the threshold"}
    ]},
    {"target": "Inadl_4, Q8NI35", "sequence (Q8NI35 547-651)": "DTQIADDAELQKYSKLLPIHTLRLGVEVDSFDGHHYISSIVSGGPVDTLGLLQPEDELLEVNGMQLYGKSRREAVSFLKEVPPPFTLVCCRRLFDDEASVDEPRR", "experiment": "holdup assay", "parameters": "key: below the threshold = too weak to quantify, mostly under pKd 3.1 to 4", "conditions": "plain residues with an end cap or a label only (N-terminal biotin on a linker: ado-ado)", "values": [
      {"binder": "B1", "pKd": "below the threshold"},
      {"binder": "B2", "pKd": "below the threshold"}
    ]},
    {"target": "Inadl_6, Q8NI35", "sequence (Q8NI35 1058-1167)": "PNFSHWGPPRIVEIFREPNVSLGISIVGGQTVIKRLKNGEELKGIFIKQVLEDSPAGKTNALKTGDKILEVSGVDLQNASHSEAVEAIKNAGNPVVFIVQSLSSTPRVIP", "experiment": "holdup assay", "parameters": "key: below the threshold = too weak to quantify, mostly under pKd 3.1 to 4", "conditions": "plain residues with an end cap or a label only (N-terminal biotin on a linker: ado-ado)", "values": [
      {"binder": "B1", "pKd": "below the threshold"},
      {"binder": "B2", "pKd": "below the threshold"}
    ]},
    {"target": "Inadl_8, Q8NI35", "sequence (Q8NI35 1425-1530)": "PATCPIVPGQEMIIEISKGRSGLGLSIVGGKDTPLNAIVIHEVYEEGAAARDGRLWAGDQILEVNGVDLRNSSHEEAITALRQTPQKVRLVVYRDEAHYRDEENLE", "experiment": "holdup assay", "parameters": "key: below the threshold = too weak to quantify, mostly under pKd 3.1 to 4", "conditions": "plain residues with an end cap or a label only (N-terminal biotin on a linker: ado-ado)", "values": [
      {"binder": "B1", "pKd": 3.77},
      {"binder": "B2", "pKd": "below the threshold"}
    ]},
    {"target": "T6, LIN7B, Q9HAP6", "T6 sequence (Q9HAP6 88-185, limits assumed, looked up)": "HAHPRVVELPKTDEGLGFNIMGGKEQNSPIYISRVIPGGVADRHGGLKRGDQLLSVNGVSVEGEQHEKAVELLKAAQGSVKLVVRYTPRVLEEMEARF", "experiment": "holdup assay", "parameters": "key: below the threshold = too weak to quantify, mostly under pKd 3.1 to 4", "conditions": "plain residues with an end cap or a label only (N-terminal biotin on a linker: ado-ado)", "values": [
      {"binder": "B1", "pKd": 3.75},
      {"binder": "B2", "pKd": "below the threshold"}
    ]},
    {"target": "LNX1_2, Q8TBB1", "sequence (Q8TBB1 371-470)": "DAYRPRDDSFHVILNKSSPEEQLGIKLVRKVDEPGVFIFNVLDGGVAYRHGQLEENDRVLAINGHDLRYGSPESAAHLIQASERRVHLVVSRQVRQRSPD", "experiment": "holdup assay", "parameters": "key: below the threshold = too weak to quantify, mostly under pKd 3.1 to 4", "conditions": "plain residues with an end cap or a label only (N-terminal biotin on a linker: ado-ado)", "values": [
      {"binder": "B1", "pKd": "below the threshold"},
      {"binder": "B2", "pKd": 3.61}
    ]},
    {"target": "LNX1_3, Q8TBB1", "sequence (Q8TBB1 500-596)": "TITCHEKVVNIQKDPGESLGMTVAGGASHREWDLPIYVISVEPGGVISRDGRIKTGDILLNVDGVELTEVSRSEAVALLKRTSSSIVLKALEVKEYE", "experiment": "holdup assay", "parameters": "key: below the threshold = too weak to quantify, mostly under pKd 3.1 to 4", "conditions": "plain residues with an end cap or a label only (N-terminal biotin on a linker: ado-ado)", "values": [
      {"binder": "B1", "pKd": "below the threshold"},
      {"binder": "B2", "pKd": 4.38}
    ]},
    {"target": "MAGI1_2, Q96QZ7", "sequence (Q96QZ7 456-580)": "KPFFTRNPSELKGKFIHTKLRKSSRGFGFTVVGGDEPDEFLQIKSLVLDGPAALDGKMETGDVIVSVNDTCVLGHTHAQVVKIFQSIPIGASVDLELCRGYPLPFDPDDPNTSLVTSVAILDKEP", "experiment": "holdup assay", "parameters": "key: below the threshold = too weak to quantify, mostly under pKd 3.1 to 4", "conditions": "plain residues with an end cap or a label only (N-terminal biotin on a linker: ado-ado)", "values": [
      {"binder": "B1", "pKd": "below the threshold"},
      {"binder": "B2", "pKd": "below the threshold"}
    ]},
    {"target": "MAGI2_3, Q86UL8", "sequence (Q86UL8 600-682)": "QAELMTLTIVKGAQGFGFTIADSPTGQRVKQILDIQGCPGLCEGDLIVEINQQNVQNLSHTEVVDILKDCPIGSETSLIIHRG", "experiment": "holdup assay", "parameters": "key: below the threshold = too weak to quantify, mostly under pKd 3.1 to 4", "conditions": "plain residues with an end cap or a label only (N-terminal biotin on a linker: ado-ado)", "values": [
      {"binder": "B1", "pKd": "below the threshold"},
      {"binder": "B2", "pKd": "below the threshold"}
    ]},
    {"target": "MAGI3_2, Q5TCQ9", "sequence (Q5TCQ9 398-503)": "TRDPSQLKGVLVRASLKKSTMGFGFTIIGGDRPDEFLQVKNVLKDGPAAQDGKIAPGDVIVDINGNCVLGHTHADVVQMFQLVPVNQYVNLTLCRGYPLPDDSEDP", "experiment": "holdup assay", "parameters": "key: below the threshold = too weak to quantify, mostly under pKd 3.1 to 4", "conditions": "plain residues with an end cap or a label only (N-terminal biotin on a linker: ado-ado)", "values": [
      {"binder": "B1", "pKd": 4.15},
      {"binder": "B2", "pKd": "below the threshold"}
    ]},
    {"target": "MAST2, Q6P0Q8", "sequence (Q6P0Q8 1099-1202)": "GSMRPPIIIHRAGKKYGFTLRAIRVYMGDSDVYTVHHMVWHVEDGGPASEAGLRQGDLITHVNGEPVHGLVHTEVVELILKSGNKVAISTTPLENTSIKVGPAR", "experiment": "holdup assay", "parameters": "key: below the threshold = too weak to quantify, mostly under pKd 3.1 to 4", "conditions": "plain residues with an end cap or a label only (N-terminal biotin on a linker: ado-ado)", "values": [
      {"binder": "B1", "pKd": 4.82},
      {"binder": "B2", "pKd": 4.56}
    ]},
    {"target": "T7, NHERF3_3, Q5T2W1", "T7 sequence (Q5T2W1 238-333, limits assumed, looked up)": "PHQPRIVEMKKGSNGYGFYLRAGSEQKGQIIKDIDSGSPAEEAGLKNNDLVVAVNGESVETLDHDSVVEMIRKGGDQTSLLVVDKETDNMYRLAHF", "experiment": "holdup assay", "parameters": "key: below the threshold = too weak to quantify, mostly under pKd 3.1 to 4", "conditions": "plain residues with an end cap or a label only (N-terminal biotin on a linker: ado-ado)", "values": [
      {"binder": "B1", "pKd": "below the threshold"},
      {"binder": "B2", "pKd": "below the threshold"}
    ]},
    {"target": "NHERF4_4, Q86UT5", "sequence (Q86UT5 464-550)": "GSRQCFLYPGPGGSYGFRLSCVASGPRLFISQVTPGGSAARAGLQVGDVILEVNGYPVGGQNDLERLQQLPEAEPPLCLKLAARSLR", "experiment": "holdup assay", "parameters": "key: below the threshold = too weak to quantify, mostly under pKd 3.1 to 4", "conditions": "plain residues with an end cap or a label only (N-terminal biotin on a linker: ado-ado)", "values": [
      {"binder": "B1", "pKd": 3.88},
      {"binder": "B2", "pKd": "below the threshold"}
    ]},
    {"target": "PARD3_3, Q8TEW0", "sequence (Q8TEW0 582-685)": "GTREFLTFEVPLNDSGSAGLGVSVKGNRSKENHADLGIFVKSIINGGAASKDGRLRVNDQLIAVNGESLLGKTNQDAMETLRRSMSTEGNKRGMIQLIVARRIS", "experiment": "holdup assay", "parameters": "key: below the threshold = too weak to quantify, mostly under pKd 3.1 to 4", "conditions": "plain residues with an end cap or a label only (N-terminal biotin on a linker: ado-ado)", "values": [
      {"binder": "B1", "pKd": "below the threshold"},
      {"binder": "B2", "pKd": "below the threshold"}
    ]},
    {"target": "T8, RHPN1, Q8TCX5", "T8 sequence (Q8TCX5 508-602, limits assumed, looked up)": "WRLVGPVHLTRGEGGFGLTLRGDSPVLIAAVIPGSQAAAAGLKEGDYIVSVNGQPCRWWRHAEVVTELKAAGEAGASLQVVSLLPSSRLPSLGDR", "experiment": "holdup assay", "parameters": "key: below the threshold = too weak to quantify, mostly under pKd 3.1 to 4", "conditions": "plain residues with an end cap or a label only (N-terminal biotin on a linker: ado-ado)", "values": [
      {"binder": "B1", "pKd": "below the threshold"},
      {"binder": "B2", "pKd": "below the threshold"}
    ]},
    {"target": "T9, SNTA1, Q13424", "T9 sequence (Q13424 82-180, limits assumed, looked up)": "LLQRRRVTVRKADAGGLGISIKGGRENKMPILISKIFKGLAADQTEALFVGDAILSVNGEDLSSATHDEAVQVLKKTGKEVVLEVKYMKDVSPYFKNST", "experiment": "holdup assay", "parameters": "key: below the threshold = too weak to quantify, mostly under pKd 3.1 to 4", "conditions": "plain residues with an end cap or a label only (N-terminal biotin on a linker: ado-ado)", "values": [
      {"binder": "B1", "pKd": "below the threshold"},
      {"binder": "B2", "pKd": "below the threshold"}
    ]}
  ]
}
